Test results published in article PMC10397247.

How the values were obtained:
APC2543-AA = target: T1, APC2543-AA; assay: two-hybrid library CCmax;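 note: natural log of median RNA to DNA barcode read ratio; higher means stronger binding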
T1 chain: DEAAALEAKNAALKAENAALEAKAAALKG

APC2556-AA = target: T2, APC2556-AA; assay: two-hybrid library CCmax; conditions: mean of both orientations;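 note: natural log of median RNA to DNA barcode read ratio; higher means stronger binding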
T2 chain: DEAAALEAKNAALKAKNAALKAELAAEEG

APC2724-AA = target: T3, APC2724-AA; assay: two-hybrid library CCmax;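 note: natural log of median RNA to DNA barcode read ratio; higher means stronger binding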
T3 chain: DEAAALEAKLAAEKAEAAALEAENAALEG

APC2811-AA = target: T4, APC2811-AA; assay: two-hybrid library CCmax; conditions: mean of both orientations;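 note: natural log of median RNA to DNA barcode read ratio; higher means stronger binding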
T4 chain: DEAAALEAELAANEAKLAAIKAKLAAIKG

APC2981-AA = target: T5, APC2981-AA; assay: two-hybrid library CCmax; conditions: mean of both orientations;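 note: natural log of median RNA to DNA barcode read ratio; higher means stronger binding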
T5 chain: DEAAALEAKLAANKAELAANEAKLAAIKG

APC3265-AA = target: T6, APC3265-AA; assay: two-hybrid library CCmax; conditions: mean of both orientations;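 note: natural log of median RNA to DNA barcode read ratio; higher means stronger binding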
T6 chain: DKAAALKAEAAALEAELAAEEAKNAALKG

APC3323-AA = target: T7, APC3323-AA; assay: two-hybrid library CCmax; conditions: mean of both orientations
T7 chain: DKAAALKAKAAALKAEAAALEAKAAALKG

APC3354-AA = target: T8, APC3354-AA; assay: two-hybrid library CCmax; conditions: mean of both orientations
T8 chain: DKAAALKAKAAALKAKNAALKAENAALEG

APC3881-AA = target: T9, APC3881-AA; assay: two-hybrid library CCmax; conditions: mean of both orientations
T9 chain: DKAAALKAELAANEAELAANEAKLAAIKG

APC4100-AA = target: T10, APC4100-AA; assay: two-hybrid library CCmax; conditions: mean of both orientations
T10 chain: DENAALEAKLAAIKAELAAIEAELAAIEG

APC4336-AA = target: T11, APC4336-AA; assay: two-hybrid library CCmax; conditions: mean of both orientations
T11 chain: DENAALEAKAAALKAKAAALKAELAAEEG

APC5009-AA = target: T12, APC5009-AA; assay: two-hybrid library CCmax; conditions: mean of both orientations
T12 chain: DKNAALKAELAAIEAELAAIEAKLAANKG

APC542-AA = target: T13, APC542-AA; assay: two-hybrid library CCmax; conditions: mean of both orientations
T13 chain: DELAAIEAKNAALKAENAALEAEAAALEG

APC5531-AA = target: T14, APC5531-AA; assay: two-hybrid library CCmax; conditions: mean of both orientations
T14 chain: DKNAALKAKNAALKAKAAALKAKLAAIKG

APC6088-AA = target: T15, APC6088-AA; assay: two-hybrid library CCmax; conditions: mean of both orientations
T15 chain: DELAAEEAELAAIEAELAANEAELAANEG

APC7524-AA = target: T16, APC7524-AA; assay: two-hybrid library CCmax; conditions: mean of both orientations
T16 chain: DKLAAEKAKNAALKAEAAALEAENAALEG

APC8401-AA = target: T17, APC8401-AA; assay: two-hybrid library CCmax; conditions: mean of both orientations
T17 chain: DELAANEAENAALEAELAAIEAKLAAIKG

APC8516-AA = target: T18, APC8516-AA; assay: two-hybrid library CCmax; conditions: mean of both orientations
T18 chain: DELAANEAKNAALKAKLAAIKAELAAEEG

APC9141-AA = target: T19, APC9141-AA; assay: two-hybrid library CCmax; conditions: mean of both orientations
T19 chain: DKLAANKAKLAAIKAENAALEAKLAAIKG

APC9182-AA = target: T20, APC9182-AA; assay: two-hybrid library CCmax; conditions: mean of both orientations
T20 chain: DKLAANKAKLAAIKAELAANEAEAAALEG

APC9291-AA = target: T21, APC9291-AA; assay: two-hybrid library CCmax; conditions: mean of both orientations
T21 chain: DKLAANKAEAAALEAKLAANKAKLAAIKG

APC9806-AA = target: T22, APC9806-AA; assay: two-hybrid library CCmax; conditions: mean of both orientations
T22 chain: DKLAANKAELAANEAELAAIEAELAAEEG

4H2729-bA = target: T23, 4H2729-bA; assay: two-hybrid library CCNG1
T23 chain: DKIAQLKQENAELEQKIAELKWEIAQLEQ

4H3112-bA = target: T24, 4H3112-bA; assay: two-hybrid library CCNG1
T24 chain: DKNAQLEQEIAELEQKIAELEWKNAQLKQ

4H3185-bA = target: T25, 4H3185-bA; assay: two-hybrid library CCNG1
T25 chain: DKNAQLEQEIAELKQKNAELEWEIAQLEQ

4H331-bA = target: T26, 4H331-bA; assay: two-hybrid library CCNG1
T26 chain: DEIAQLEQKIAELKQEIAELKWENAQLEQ

4H3354-bA = target: T27, 4H3354-bA; assay: two-hybrid library CCNG1
T27 chain: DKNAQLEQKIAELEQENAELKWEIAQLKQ

4H338-bA = target: T28, 4H338-bA; assay: two-hybrid library CCNG1
T28 chain: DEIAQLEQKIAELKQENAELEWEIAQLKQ

4H3427-bA = target: T29, 4H3427-bA; assay: two-hybrid library CCNG1
T29 chain: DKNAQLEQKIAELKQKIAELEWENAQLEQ

4H3782-bA = target: T30, 4H3782-bA; assay: two-hybrid library CCNG1
T30 chain: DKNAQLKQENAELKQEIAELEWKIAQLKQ

4H3855-bA = target: T31, 4H3855-bA; assay: two-hybrid library CCNG1
T31 chain: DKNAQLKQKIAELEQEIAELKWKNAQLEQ

4H4001-bA = target: T32, 4H4001-bA; assay: two-hybrid library CCNG1
T32 chain: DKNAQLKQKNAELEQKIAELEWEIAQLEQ

4H454-bA = target: T33, 4H454-bA; assay: two-hybrid library CCNG1
T33 chain: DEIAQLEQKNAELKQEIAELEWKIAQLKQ

4H568-bA = target: T34, 4H568-bA; assay: two-hybrid library CCNG1
T34 chain: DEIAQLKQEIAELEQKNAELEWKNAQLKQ

4H607-bA = target: T35, 4H607-bA; assay: two-hybrid library CCNG1
T35 chain: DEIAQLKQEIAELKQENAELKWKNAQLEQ

4H687-bA = target: T36, 4H687-bA; assay: two-hybrid library CCNG1
T36 chain: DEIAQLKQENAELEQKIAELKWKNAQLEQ

4H717-bA = target: T37, 4H717-bA; assay: two-hybrid library CCNG1
T37 chain: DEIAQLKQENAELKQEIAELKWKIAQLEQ

4H72-bA = target: T38, 4H72-bA; assay: two-hybrid library CCNG1
T38 chain: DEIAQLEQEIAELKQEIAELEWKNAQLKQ

4H754-bA = target: T39, 4H754-bA; assay: two-hybrid library CCNG1
T39 chain: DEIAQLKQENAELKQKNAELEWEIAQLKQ

4H797-bA = target: T40, 4H797-bA; assay: two-hybrid library CCNG1
T40 chain: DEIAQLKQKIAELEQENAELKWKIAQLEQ

4H883-bA = target: T41, 4H883-bA; assay: two-hybrid library CCNG1
T41 chain: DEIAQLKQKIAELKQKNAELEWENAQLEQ

4H908-bA = target: T42, 4H908-bA; assay: two-hybrid library CCNG1; conditions: mean of both orientations
T42 chain: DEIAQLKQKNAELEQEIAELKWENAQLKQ

4H918-bA = target: T43, 4H918-bA; assay: two-hybrid library CCNG1
T43 chain: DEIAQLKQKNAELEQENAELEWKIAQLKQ

4H953-bA = target: T44, 4H953-bA; assay: two-hybrid library CCNG1
T44 chain: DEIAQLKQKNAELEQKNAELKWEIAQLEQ

4H967-bA = target: T45, 4H967-bA; assay: two-hybrid library CCNG1
T45 chain: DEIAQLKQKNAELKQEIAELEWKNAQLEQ

Question: For DEAAALEAKNAALKAENAALEAKAAALKG [APC2543-AA], which interaction score (APC2543-AA) is on record?
Answer: -1.71

Question: What about the interaction score (APC2556-AA) of the same binder?
Answer: -1.67

Question: And the interaction score (APC2724-AA)?
Answer: -1.16

Question: And the interaction score (APC2811-AA)?
Answer: -1.54

Question: And the interaction score (APC2981-AA)?
Answer: -1.4

Question: And the interaction score (APC3265-AA)?
Answer: -1.58

Question: And the interaction score (APC3323-AA)?
Answer: -1.36

Question: What about the interaction score (APC3354-AA) of the same binder?
Answer: -1.72

Question: And the interaction score (APC3881-AA)?
Answer: -1.22

Question: And the interaction score (APC4100-AA)?
Answer: -1.65

Question: What about the interaction score (APC4336-AA) of the same binder?
Answer: -1.73

Question: What about the interaction score (APC5009-AA) of the same binder?
Answer: -1.04

Question: And the interaction score (APC542-AA)?
Answer: -1.65

Question: What about the interaction score (APC5531-AA) of the same binder?
Answer: -1.8

Question: What about the interaction score (APC6088-AA) of the same binder?
Answer: -1.87

Question: What about the interaction score (APC7524-AA) of the same binder?
Answer: -1.63

Question: What about the interaction score (APC8401-AA) of the same binder?
Answer: -1.23

Question: What about the interaction score (APC8516-AA) of the same binder?
Answer: -1.7

Question: And the interaction score (APC9141-AA)?
Answer: -1.6

Question: And the interaction score (APC9182-AA)?
Answer: -1.84

Question: What about the interaction score (APC9291-AA) of the same binder?
Answer: -1.67

Question: What about the interaction score (APC9806-AA) of the same binder?
Answer: -1.56

Question: Which results are given for DKIAQLKQENAELEQKIAELKWEIAQLEQ [4H2729-bA]?
Answer: interaction score (4H2729-bA): -0.254; interaction score (4H3112-bA): -0.141; interaction score (4H3185-bA): -0.331; interaction score (4H331-bA): -1.18; interaction score (4H3354-bA): -0.919; interaction score (4H338-bA): -0.713; interaction score (4H3427-bA): -0.88; interaction score (4H3782-bA): 0.712; interaction score (4H3855-bA): -0.46; interaction score (4H4001-bA): -0.575; interaction score (4H454-bA): 1.84; interaction score (4H568-bA): -1.78; interaction score (4H607-bA): -1.29; interaction score (4H687-bA): -1.51; interaction score (4H717-bA): -1.35; interaction score (4H72-bA): -0.336; interaction score (4H754-bA): -0.709; interaction score (4H797-bA): -1.21; interaction score (4H883-bA): -1.72; interaction score (4H908-bA): -0.401; interaction score (4H918-bA): 1.73; interaction score (4H953-bA): -1.01; interaction score (4H967-bA): 0.0132
